Drawing on patent US20020147999A1, this text covers transfected cells displaying the intracellular filamentous inclusions and inhibition of apoE cleavage enzyme activity (chromogenic assay, 1 mM Ala-Ala-Pro-Phe-p-nitroanilide; 7 µM apoE4) for three substances.

What all share (test): cell-based or functional assay
For assay [1], the target named is p-tau (phosphorylated microtubule-associated protein tau), mouse, endogenous in Neuro-2a cells and mouse brain (mouse) (UniProt P10637).
Assay [2] has as its target p-NF-H (phosphorylated neurofilament protein of high molecular weight), mouse, endogenous in Neuro-2a cells (mouse) (UniProt P19246).
Assay [3] deals with apoE cleavage enzyme (chymotrypsin-like serine protease; in mouse brain lysate or roughly/partially purified).

Sequence of p-NF-H (phosphorylated neurofilament protein of high molecular weight), mouse, endogenous in Neuro-2a cells (mouse) (P19246 whole entry): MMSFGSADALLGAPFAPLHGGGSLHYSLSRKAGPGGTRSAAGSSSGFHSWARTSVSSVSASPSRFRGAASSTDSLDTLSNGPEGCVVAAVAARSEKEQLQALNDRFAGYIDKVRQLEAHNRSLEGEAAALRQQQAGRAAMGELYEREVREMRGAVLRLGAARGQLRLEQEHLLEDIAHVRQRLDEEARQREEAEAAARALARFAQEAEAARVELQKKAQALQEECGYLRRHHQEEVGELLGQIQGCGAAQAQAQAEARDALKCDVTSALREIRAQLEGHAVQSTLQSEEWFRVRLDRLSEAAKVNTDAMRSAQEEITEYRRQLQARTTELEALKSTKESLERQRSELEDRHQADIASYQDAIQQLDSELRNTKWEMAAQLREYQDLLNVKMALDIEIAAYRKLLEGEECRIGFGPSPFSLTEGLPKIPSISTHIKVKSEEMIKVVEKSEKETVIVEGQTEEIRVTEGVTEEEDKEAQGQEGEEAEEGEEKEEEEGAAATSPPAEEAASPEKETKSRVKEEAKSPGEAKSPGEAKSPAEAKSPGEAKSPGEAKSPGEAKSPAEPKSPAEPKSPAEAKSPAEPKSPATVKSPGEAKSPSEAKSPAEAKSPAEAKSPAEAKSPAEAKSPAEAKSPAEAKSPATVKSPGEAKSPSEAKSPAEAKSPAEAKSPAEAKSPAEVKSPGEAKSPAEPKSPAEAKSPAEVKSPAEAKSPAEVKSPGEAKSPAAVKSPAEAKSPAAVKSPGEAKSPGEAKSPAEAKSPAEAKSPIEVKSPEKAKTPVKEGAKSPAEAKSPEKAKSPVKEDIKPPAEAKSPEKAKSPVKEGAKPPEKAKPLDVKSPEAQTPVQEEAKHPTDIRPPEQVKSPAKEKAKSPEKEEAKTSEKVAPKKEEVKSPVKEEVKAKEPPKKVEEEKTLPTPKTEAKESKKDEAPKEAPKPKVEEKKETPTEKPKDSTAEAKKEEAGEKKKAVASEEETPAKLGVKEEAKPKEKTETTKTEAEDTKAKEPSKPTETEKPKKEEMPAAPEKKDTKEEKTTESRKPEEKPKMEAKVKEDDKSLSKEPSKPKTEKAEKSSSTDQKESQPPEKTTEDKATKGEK
Sequence of p-tau (phosphorylated microtubule-associated protein tau), mouse, endogenous in Neuro-2a cells and mouse brain (mouse) (P10637 other isoform, or with tags, fused parts or gaps limits assumed): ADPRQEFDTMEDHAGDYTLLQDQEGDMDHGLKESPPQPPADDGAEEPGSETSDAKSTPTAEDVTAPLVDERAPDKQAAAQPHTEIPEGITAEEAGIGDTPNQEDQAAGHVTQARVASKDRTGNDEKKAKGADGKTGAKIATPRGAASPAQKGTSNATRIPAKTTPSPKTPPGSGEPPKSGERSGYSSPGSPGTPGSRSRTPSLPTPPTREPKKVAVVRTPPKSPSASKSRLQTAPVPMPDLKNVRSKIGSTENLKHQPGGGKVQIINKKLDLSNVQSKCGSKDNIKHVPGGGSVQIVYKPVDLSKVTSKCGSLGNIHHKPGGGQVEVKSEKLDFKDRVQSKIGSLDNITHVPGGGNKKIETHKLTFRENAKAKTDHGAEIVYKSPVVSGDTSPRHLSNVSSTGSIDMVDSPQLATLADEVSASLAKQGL

In the case of “apoE3(Δ272-299), expressed in transfected cells (pFLAG-CMV-3 vector, secretory pathway, N-terminal FLAG) (from UniProt P02649 19-289)”, the transfected cells displaying the intracellular filamentous inclusions in assay [1] and in assay [2] was 32% in each case.

On to “apoE4(Δ272-299), expressed in transfected cells (pFLAG-CMV-3 vector, secretory pathway, N-terminal FLAG) (from UniProt P02649 19-289)”, for which the transfected cells displaying the intracellular filamentous inclusions in assay [1] and in assay [2] was 78% in each case.

“purified human apoE4 (full-length) (from UniProt P02649 19-317)” came in with an inhibition of apoE cleavage enzyme activity (chromogenic assay, 1 mM Ala-Ala-Pro-Phe-p-nitroanilide; 7 µM apoE4) in assay [3] of 89%.
